# US20250163127A1
# Where “and” joins values, the source holds several entries; their conditions need not be identical. Equal values may be shown once.
# Legend:
# [1] = target: T1, CD226 (human) (UniProt Q15762); assay: flow cytometry, Fc fusion on Expi293 cells transfected with full-length human CD226
# T1 sequence: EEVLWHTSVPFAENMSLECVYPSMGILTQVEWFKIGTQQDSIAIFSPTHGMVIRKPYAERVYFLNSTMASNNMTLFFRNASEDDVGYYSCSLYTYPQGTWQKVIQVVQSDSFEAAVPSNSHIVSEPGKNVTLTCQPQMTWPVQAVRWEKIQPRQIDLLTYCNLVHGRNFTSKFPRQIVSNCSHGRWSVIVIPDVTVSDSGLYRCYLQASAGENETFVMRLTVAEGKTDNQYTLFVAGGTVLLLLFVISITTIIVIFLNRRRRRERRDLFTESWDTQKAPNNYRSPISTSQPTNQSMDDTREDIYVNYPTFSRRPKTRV
# [2] = target: T2, TIGIT (human) (UniProt Q495A1); assay: flow cytometry on transfected HEK293 cells, 100 nM
# T2 sequence: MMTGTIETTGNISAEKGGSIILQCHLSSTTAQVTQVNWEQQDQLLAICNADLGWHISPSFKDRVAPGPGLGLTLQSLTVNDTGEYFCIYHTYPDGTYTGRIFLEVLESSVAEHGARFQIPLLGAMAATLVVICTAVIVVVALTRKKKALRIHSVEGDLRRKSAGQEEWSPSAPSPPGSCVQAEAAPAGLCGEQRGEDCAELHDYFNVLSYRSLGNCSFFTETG
# [3] = target: T3, CD96 (human) (UniProt P40200); assay: flow cytometry on transfected HEK293 cells, 100 nM
# T3 sequence: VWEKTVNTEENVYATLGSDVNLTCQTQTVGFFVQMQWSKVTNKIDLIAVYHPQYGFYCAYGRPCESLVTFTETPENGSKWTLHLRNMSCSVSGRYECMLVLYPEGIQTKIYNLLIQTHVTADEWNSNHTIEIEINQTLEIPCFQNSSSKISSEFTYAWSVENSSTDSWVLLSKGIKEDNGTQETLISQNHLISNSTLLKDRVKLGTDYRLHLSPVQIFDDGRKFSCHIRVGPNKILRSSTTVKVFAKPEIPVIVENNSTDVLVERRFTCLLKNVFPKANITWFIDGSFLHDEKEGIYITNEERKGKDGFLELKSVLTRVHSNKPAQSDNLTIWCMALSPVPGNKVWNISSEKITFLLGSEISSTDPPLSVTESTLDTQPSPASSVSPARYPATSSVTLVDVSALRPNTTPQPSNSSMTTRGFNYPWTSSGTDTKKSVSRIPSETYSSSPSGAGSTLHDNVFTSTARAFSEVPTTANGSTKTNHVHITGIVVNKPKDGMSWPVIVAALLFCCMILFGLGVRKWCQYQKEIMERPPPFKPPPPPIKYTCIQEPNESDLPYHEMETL
# [4] = target: CD112R (human) (UniProt Q6DKI7); assay: flow cytometry, transfected HEK293
# [5] = target: T2, TIGIT (human); assay: flow cytometry, transfected HEK293
# [6] = target: T1, CD226 (human); assay: flow cytometry, transfected HEK293
# [7] = target: T3, CD96 (human); assay: flow cytometry, transfected HEK293
# [8] = target: CD112R (human) (UniProt Q6DKI7); assay: flow cytometry, Fc fusion on Expi293 cells transfected with full-length human CD112R
# [9] = target: T2, TIGIT (human); assay: flow cytometry, Fc fusion on Expi293 cells transfected with full-length human TIGIT
# [10] = target: T3, CD96 (human); assay: flow cytometry, CD96-transfected Expi293 cells
# [11] = target: T2, TIGIT (human); assay: flow cytometry, TIGIT-transfected Expi293 cells
# [12] = target: T1, CD226 (human); assay: flow cytometry, CD226-transfected Expi293 cells
# [13] = target: T3, CD96 (human); assay: flow cytometry, CD96-transfected Expi293 cells; ratio to wild-type CD155
# [14] = target: CD80 (human); assay: flow cytometry, cells expressing CD80, 20 nM
# [15] = target: T4, ICOSL (human) (UniProt O75144); assay: flow cytometry, cells expressing the partner
# T4 sequence: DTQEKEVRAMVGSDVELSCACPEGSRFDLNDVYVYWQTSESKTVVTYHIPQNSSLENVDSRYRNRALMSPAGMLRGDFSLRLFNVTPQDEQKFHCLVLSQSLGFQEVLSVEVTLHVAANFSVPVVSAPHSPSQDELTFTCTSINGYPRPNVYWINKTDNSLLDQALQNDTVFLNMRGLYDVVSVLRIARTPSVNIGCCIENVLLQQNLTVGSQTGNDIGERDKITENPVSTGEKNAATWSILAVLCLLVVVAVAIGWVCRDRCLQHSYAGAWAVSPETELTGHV
# [16] = target: CD80 (human) (UniProt P33681); assay: flow cytometry, cells expressing the partner
# [17] = target: CD86 (human) (UniProt P42081); assay: flow cytometry, cells expressing the partner
# [18] = target: human PD-1 (human) (UniProt Q15116); assay: flow cytometry, cells expressing PD-1, 20 nM
# [19] = target: CD28, full-length, expressed on transfected cells (Homo sapiens (Human)) (UniProt P10747); assay: flow cytometry, cells expressing target
# [20] = target: ICOS, full-length, expressed on transfected cells (Homo sapiens (Human)) (UniProt Q9Y6W8); assay: flow cytometry, cells expressing target
# [21] = target: CTLA-4, full-length, expressed on transfected cells (Homo sapiens (Human)) (UniProt P16410); assay: flow cytometry, cells expressing target
# [22] = target: ICOS as used in the OD read-out of Table E15A (Homo sapiens (Human)) (UniProt Q9Y6W8); assay: OD read-out, format not told
# [23] = target: CD28 (human) (UniProt P10747); assay: flow cytometry, transfected cells
# [24] = target: CTLA-4 (Homo sapiens (Human)) (UniProt P16410); assay: flow cytometry, transfected cells
# [25] = target: ICOS (Homo sapiens (Human)) (UniProt Q9Y6W8); assay: flow cytometry, transfected cells
# [26] = target: human PD-1 (human) (UniProt Q15116); assay: flow cytometry, CHO/PD-1 cells, 100 nM, anti-Flag
# Target sequence in this assay (Q15116 25-288): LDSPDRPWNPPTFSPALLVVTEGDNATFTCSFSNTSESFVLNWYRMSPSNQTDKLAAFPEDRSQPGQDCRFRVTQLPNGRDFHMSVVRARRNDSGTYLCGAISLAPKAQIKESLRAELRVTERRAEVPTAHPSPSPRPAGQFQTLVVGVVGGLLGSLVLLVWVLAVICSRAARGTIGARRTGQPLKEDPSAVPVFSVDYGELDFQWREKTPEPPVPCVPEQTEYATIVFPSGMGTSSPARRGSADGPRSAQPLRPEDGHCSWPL
# [27] = target: human CTLA-4 (human); assay: flow cytometry, CHO/CTLA-4 cells, 100 nM, anti-Flag
# [28] = target: PD-L1 (human); assay: flow cytometry on HEK293 cells transfected with PD-L1
# [29] = target: CD28 (human) (UniProt P10747); assay: flow cytometry on HEK293 cells transfected with CD28
# [30] = target: human PD-1 (human) (UniProt Q15116)
# Target sequence in this assay (Q15116 25-288): as above
# [31] = target: CD28 (human) (UniProt P10747); assay: flow cytometry, Jurkat cells (endogenous CD28), 100 nM, anti-Flag
# [32] = target: T5, human ICOSL (human); assay: flow cytometry, cells expressing human ICOSL
# T5 sequence: T4 sequence
# Sequence of WT CD112 IgV (Fc fusion) (chain): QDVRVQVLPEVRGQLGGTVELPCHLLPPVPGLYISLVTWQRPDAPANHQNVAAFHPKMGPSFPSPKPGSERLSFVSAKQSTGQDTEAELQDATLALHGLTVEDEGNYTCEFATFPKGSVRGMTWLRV
# Sequence of CD80 (human) (UniProt P33681) (P33681 35-288): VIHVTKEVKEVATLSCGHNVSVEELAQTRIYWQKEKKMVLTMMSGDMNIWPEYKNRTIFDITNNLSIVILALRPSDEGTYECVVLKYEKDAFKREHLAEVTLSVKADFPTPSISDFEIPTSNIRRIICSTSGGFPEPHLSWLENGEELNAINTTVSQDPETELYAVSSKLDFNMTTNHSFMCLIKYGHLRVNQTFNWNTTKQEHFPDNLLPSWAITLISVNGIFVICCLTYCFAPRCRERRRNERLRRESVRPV
# Sequence of CD112R (human) (Q6DKI7 whole entry, the tested form may be a part): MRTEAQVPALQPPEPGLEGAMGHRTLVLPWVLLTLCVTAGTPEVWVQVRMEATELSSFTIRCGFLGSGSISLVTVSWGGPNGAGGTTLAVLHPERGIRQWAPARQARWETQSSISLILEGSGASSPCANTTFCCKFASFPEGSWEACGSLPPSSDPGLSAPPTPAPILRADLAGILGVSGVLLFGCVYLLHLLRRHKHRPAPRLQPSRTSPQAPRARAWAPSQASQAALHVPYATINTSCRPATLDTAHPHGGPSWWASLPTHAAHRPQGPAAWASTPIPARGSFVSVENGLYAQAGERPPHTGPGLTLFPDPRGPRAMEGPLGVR
# Sequence of Wild type CD155 IgV-Fc (Fc fusion) (chain): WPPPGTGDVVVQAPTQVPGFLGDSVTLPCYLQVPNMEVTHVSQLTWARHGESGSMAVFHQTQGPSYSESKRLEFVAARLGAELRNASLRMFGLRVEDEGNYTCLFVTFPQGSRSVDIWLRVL
# Sequence of CTLA-4, full-length, expressed on transfected cells (Homo sapiens (Human)) (P16410 36-223): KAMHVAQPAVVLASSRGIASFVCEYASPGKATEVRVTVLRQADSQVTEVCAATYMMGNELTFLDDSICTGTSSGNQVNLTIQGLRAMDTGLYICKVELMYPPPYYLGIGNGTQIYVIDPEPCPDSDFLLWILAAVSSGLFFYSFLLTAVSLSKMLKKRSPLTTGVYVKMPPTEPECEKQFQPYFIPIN
# Sequence of CD112 ECD-Fc (Fc fusion) (chain): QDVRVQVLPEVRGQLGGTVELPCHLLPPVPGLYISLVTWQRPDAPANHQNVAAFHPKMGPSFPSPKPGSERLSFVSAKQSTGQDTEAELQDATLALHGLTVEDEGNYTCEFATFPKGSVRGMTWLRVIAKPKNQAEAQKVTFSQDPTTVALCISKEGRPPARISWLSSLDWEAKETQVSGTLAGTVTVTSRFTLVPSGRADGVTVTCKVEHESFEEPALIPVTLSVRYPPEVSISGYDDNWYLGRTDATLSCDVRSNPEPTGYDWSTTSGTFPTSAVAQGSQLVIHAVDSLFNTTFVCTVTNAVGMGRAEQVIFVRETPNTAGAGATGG
# Sequence of CTLA-4 (Homo sapiens (Human)) (P16410 36-223): as the sequence (P16410 36-223) above
# Sequence of human CTLA-4 (human) (chain, as listed by the source): as the sequence (P16410 36-223) above
# Sequence of Wild-type PD-L1 (IgV, SEQ ID NO 309) (ligand) (chain): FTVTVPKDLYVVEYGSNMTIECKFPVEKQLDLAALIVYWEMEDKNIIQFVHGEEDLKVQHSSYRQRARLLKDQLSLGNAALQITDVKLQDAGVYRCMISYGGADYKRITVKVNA
# Sequence of ICOS, full-length, expressed on transfected cells (Homo sapiens (Human)) (Q9Y6W8 21-199 limits assumed): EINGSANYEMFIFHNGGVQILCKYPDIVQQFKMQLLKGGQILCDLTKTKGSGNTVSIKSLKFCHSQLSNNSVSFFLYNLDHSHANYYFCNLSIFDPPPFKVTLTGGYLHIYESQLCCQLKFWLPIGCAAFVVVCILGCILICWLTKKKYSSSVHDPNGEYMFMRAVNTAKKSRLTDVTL
# Sequence of ICOS (Homo sapiens (Human)) (Q9Y6W8 21-199 limits assumed): as above
# Sequence of Wild Type PD-L2 IgV Fc fusion (chain): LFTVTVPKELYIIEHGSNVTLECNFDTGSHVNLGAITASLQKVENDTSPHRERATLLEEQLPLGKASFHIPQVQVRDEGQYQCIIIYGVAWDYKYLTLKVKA
# Sequence of PD-L1 (human) (chain, as listed by the source): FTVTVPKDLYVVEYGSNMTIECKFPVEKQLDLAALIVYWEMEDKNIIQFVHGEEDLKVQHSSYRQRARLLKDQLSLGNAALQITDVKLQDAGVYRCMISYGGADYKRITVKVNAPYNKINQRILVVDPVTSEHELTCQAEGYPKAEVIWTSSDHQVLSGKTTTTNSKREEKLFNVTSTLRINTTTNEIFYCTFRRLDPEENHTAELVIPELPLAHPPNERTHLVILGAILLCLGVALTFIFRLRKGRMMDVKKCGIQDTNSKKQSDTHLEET
# Sequence of Wildtype CD112-IgV Fc (Fc fusion) (chain): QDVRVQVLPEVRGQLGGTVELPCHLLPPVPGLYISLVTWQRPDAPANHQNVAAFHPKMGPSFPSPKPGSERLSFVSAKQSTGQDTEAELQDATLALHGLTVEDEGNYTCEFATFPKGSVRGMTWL
# Sequence of WT CD80 ECD-Fc (Fc fusion) (chain): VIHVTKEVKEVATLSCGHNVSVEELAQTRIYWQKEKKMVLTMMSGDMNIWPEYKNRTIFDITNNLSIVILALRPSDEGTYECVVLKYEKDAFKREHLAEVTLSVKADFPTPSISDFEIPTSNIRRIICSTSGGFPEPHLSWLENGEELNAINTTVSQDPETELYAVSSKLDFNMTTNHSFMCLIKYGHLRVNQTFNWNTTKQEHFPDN
# Sequence of CTLA4-Fc (P16410 37-162 limits assumed): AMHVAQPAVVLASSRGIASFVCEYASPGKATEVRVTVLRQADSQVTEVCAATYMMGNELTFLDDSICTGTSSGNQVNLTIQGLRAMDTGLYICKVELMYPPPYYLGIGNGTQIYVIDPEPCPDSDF
substance,measurement,setting,value
CD112 A112V (Fc fusion),MFI,[1],152000 MFI
CD112 ECD-Fc (Fc fusion),MFI at 100 nM,[2],29200 MFI
same,MFI at 100 nM,[3],1100 MFI
CD112 IgV-Fc A112V (Fc fusion),MFI at 20 nM,[4],1140 and 1110
same,MFI at 20 nM,[5],69700
CD112 IgV-Fc Y33H/A112V (Fc fusion),Fold Increase to WT IgV,[4],0.69 fold
same,MFI at 20 nM,[4],1150
same,Fold Increase to WT IgV,[6],1.28 fold
same,MFI at 20 nM,[6],13800
same,Fold Increase to WT IgV,[5],5.09 fold
same,MFI at 20 nM,[5],178000
same,Fold Increase to WT IgV,[7],1.25 fold
same,MFI at 20 nM,[7],3120
"CD112 N106Y, A112V (Fc fusion)",MFI,[8],1970 MFI
same,MFI parental ratio (parental ratio),[8],1.36
same,MFI,[9],6040 MFI
same,MFI,[1],15300 MFI
same,MFI parental ratio (parental ratio),[1],0.06
"CD112 Y33H, A112V (Fc fusion)",MFI,[9],99000 MFI
same,MFI,[1],231000 MFI
"CD155 IgV-Fc A81V, L83P (Fc fusion)",MFI,[10],2620
same,MFI,[11],2910
"CD155 IgV-Fc P18L, L79V, F91S (Fc fusion)",MFI,[12],5140
same,MFI,[10],3280
same,MFI,[11],4070
same,MFI parental ratio,[13],1.1
"CD155 IgV-Fc P18T, F91S, R94H (Fc fusion)",MFI,[12],3590
same,MFI,[10],2510
same,MFI,[11],2940
same,MFI parental ratio,[13],0.8
CTLA4-Fc (from UniProt P16410) (Fc fusion),MFI at 20 nM,[14],200000 MFI
CTLA-4 ECD-Fc L12P/A26T (Fc fusion),MFI,[15],928 MFI
same,MFI,[16],1024 MFI
same,MFI,[17],276000 MFI
same,MFI ratio to WT (ΔWT),[17],0.4 fold
CTLA-4 ECD-Fc L12P/A26T/L63P (Fc fusion),MFI,[15],891 MFI
same,MFI,[16],2400 MFI
same,MFI,[17],500000 MFI
CTLA-4 ECD-Fc L12P/A26T/L63P/L98Q/Y105L (Fc fusion),MFI,[15],873 MFI
same,MFI,[16],829 MFI
same,MFI,[17],762000 MFI
CTLA-4 ECD-Fc L63P (Fc fusion),MFI,[15],966 MFI
same,MFI,[16],3930 MFI
same,MFI,[17],596000 MFI
CTLA-4 ECD-Fc L63P/L98Q/Y105L (Fc fusion),MFI,[15],1800 MFI
same,MFI,[16],4720 MFI
same,MFI,[17],411000 MFI
CTLA-4 ECD-Fc L98Q/Y105L (Fc fusion),MFI,[15],1190 MFI
same,MFI,[16],3860 MFI
same,MFI,[17],685000 MFI
Fc Control,MFI at 20 nM,[18],59 MFI
same,MFI at 20 nM,[14],132 MFI
ICOSL ECD-Fc F138L/L203P (Fc fusion),MFI,[19],1510 MFI
same,MFI,[20],53800 MFI
same,MFI,[21],2150 MFI
ICOSL ECD-Fc N52H/N57Y/Q100P (Fc fusion),OD,[22],1.57 OD
same,MFI,[19],447 MFI
same,parental ratio,[19],24.8 ratio to WT
ICOSL ECD-Fc N52S/E220G (Fc fusion),MFI,[21],1800 MFI
ICOSL ECD-Fc N52S/S130G/Y152C (Fc fusion),OD,[22],0.16 OD
same,parental ratio,[22],0.19 ratio to WT
same,MFI,[19],24 MFI
ICOSL ECD-Fc V11E/N30D/N52H/N57Y/H94E/L96I/L98F/N194D/V210A/I218T (Fc fusion),MFI,[19],120000 MFI
same,parental ratio,[19],26.8 ratio to WT
same,MFI,[20],180000 MFI
same,MFI,[21],62800 MFI
same,parental ratio,[21],3.55 ratio to WT
ICOSL-Fc N52H/N57Y/Q100R (Fc fusion),MFI,[23],142000 MFI
same,MFI ratio to WT (ΔWT),[23],6.4 fold
same,MFI,[24],817000 MFI
same,MFI ratio to WT (ΔWT),[24],2.47 fold
same,MFI,[25],200000 MFI
same,MFI ratio to WT (ΔWT),[25],0.94 fold
PD-L2 1417 (monomeric variant PD-L2 IgV H15Q/T47A/K65R/S67L/Q82R/V89D) (ligand),MFI,[26],26200
same,MFI,[27],152
Variant CD80 S44P/A71D Fc fusion,MFI at 22.2 nM,[28],6310 MFI
WT CD80 ECD-Fc (Fc fusion),MFI at 66.6 nM,[29],24800 MFI
WT CD112 IgV (Fc fusion),MFI at 20 nM,[4],1660
same,MFI at 20 nM,[6],10800
same,MFI at 20 nM,[5],34900
same,MFI at 20 nM,[7],2500
Wild Type PD-L2 IgV Fc fusion,IFN gamma levels pg/mL (MLR),[30],1380 pg/mL
Wild type CD155 IgV-Fc (Fc fusion),MFI,[12],3720
same,MFI,[10],3080
same,MFI,[11],2720
"Wild-type PD-L1 (IgV, SEQ ID NO 309) (ligand)",MFI,[31],716
same,MFI,[27],97.4
Wildtype CD112-IgV Fc (Fc fusion),MFI at 100 nM,[2],82400 MFI
"variant CD112 IgV-Fc Y33H, A112V (Fc fusion)",MFI at 100 nM,[2],20600 MFI
variant CTLA-4 ECD-Fc G29W/L98Q/Y105L (Fc fusion),MFI,[32],570 MFI
variant CTLA-4 ECD-Fc G29W/M56T/L98Q/Y105L (Fc fusion),MFI,[32],612 MFI
variant CTLA-4 ECD-Fc G29W/M56T/S72G/L98Q/Y105L (Fc fusion),MFI,[32],534 MFI
variant CTLA-4 ECD-Fc L12F/R16H/G29W/L98Q/Y105L (Fc fusion),MFI,[32],862 MFI
variant CTLA-4 ECD-Fc L12F/R16H/G29W/M56T/S72G/L98Q/Y105L (Fc fusion),MFI,[32],613 MFI
variant CTLA-4 ECD-Fc M56T/L98Q/Y105L (Fc fusion),MFI,[32],700 MFI
variant PD-L1 G15A/I36T/V129D/R195G Fc fusion,MFI at 20 nM,[18],125 MFI
variant PD-L1 G15A/V129D Fc fusion,MFI at 20 nM,[14],128 MFI
variant PD-L1 I36T/M97L/A103V/Q155H Fc fusion,MFI at 20 nM,[18],120 MFI
same,MFI at 20 nM,[14],128 MFI
variant PD-L1 V93E/V129D Fc fusion,MFI at 20 nM,[14],150 MFI
variant PD-L1 V129D/H202Q Fc fusion,MFI at 20 nM,[18],2000 MFI
variant PD-L2 IgV H15Q/T47A/H69L/Q82R/V89D Fc fusion,IFN gamma levels pg/mL (MLR),[30],1730 pg/mL
variant PD-L2 IgV H15Q/T47A/K65R/S67L/Q82R/V89D Fc fusion,IFN gamma levels pg/mL (MLR),[30],1340 pg/mL
